This is an account of results in paper PMC11487180.

pKd: −log10 of the molar value.

Assay [1] deals with MBP-LRRK2-Roc-COR (wild type) (human) (UniProt Q5S007). Kind of assay: MST; NT-647-NHS labelled MBP-LRRK2-Roc-COR at 100 nM; unlabelled GST, GST-CRIB-PAK5 or GST-CRIB-PAK6 titrated; guanine nucleotides at 0.5 mM; Monolith NT.115, IR laser power 80%; analysed by PALMIST.
For assay [2], the target named is 3xFlag tagged PAK6, full-length, purified from HEK293 cells (human) (UniProt Q9NQU5). Kind of assay: MST; NT-647-NHS labelled PAK6 full-length at 100 nM; unlabelled MBP-LRRK2-Roc-COR titrated (R1441C 3.4 nM to 110 µM, Y1699C 3.6 nM to 118 µM); guanine nucleotides at 0.5 mM; Monolith NT.115, IR laser power 80%; analysed by PALMIST.
The target in assay [3] is PAK6 (Homo sapiens) (UniProt Q9NQU5). The following applies: cited from earlier work.
Chain of PAK6 (Homo sapiens) (Q9NQU5 whole entry): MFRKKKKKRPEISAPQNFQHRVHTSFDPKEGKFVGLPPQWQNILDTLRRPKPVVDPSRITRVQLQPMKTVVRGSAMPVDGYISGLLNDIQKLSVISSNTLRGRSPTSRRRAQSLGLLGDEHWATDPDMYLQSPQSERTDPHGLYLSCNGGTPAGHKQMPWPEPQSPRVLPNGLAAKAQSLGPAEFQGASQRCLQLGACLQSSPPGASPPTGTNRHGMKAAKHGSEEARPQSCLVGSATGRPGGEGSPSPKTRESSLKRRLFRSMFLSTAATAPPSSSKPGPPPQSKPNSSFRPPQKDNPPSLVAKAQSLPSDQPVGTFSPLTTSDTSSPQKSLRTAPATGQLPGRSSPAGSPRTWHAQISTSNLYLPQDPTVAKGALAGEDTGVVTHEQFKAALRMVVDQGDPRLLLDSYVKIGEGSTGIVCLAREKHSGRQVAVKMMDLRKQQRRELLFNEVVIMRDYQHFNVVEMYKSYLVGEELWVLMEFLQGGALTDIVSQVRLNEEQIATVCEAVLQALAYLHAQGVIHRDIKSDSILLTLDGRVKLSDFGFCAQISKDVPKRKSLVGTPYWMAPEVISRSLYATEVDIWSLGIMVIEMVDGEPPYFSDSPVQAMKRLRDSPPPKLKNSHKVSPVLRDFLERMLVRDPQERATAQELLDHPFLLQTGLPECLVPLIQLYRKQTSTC

Chain of MBP-LRRK2-Roc-COR (wild type) (human) (Q5S007 whole entry): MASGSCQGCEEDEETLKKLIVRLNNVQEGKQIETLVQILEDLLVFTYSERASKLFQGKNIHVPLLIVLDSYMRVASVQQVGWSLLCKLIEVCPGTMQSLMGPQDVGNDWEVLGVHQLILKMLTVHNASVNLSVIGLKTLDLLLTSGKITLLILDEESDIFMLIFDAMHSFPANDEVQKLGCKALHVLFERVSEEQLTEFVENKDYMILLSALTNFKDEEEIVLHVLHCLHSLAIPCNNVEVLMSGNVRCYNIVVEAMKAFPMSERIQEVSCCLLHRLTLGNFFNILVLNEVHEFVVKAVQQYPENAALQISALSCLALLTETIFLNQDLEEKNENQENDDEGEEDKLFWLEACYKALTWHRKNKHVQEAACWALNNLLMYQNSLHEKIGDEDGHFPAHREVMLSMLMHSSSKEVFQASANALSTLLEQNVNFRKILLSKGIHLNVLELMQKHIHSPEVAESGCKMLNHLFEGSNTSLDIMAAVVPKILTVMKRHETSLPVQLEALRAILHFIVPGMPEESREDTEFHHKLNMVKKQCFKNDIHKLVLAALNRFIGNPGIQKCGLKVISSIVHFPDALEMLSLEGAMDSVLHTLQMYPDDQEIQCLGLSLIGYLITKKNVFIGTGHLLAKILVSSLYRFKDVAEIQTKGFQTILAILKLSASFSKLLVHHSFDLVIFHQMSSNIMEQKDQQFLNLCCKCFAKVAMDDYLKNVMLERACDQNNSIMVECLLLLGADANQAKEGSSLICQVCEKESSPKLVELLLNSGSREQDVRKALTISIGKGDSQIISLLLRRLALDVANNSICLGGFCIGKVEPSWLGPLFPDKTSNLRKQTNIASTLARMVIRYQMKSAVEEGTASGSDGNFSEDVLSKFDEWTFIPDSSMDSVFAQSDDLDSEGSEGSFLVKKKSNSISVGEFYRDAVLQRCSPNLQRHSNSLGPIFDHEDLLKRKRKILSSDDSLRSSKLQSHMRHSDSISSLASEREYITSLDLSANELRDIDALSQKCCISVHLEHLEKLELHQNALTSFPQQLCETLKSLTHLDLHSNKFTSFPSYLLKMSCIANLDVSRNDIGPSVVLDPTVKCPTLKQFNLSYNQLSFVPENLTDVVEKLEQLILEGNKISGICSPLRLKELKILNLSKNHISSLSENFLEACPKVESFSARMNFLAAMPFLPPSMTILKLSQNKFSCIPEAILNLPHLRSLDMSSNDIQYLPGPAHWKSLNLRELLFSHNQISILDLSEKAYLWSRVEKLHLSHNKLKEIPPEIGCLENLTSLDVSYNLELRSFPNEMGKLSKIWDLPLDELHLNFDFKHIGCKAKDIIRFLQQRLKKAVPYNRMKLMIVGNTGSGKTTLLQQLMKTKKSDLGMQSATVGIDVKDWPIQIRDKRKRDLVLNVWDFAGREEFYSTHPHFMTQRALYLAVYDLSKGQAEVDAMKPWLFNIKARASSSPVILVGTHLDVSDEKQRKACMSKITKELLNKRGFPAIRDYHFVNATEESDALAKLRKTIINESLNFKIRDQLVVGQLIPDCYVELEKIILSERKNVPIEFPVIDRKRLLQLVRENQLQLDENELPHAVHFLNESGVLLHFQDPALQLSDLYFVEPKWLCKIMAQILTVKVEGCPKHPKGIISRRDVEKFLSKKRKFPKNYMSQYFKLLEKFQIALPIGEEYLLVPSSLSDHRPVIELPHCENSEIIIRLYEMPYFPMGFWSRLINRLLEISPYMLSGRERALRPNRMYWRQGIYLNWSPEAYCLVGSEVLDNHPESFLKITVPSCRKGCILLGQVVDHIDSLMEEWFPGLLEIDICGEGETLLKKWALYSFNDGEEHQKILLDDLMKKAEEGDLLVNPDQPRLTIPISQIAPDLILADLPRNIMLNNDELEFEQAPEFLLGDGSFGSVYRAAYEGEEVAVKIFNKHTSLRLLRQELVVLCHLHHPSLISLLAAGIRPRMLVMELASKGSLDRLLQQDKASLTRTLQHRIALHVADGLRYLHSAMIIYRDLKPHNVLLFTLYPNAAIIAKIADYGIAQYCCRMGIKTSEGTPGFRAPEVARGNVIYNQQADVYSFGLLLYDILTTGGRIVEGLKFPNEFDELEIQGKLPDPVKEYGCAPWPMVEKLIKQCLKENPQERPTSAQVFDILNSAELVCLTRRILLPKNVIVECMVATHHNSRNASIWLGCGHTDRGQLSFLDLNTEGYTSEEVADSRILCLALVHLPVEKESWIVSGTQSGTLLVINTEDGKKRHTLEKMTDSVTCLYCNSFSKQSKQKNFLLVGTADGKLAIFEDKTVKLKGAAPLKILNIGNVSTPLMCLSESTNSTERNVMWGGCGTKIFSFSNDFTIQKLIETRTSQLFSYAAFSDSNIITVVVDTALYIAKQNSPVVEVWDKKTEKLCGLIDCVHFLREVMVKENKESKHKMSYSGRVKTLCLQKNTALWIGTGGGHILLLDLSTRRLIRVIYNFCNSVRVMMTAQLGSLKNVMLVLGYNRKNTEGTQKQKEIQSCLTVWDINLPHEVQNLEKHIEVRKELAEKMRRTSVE
Chain of 3xFlag tagged PAK6, full-length, purified from HEK293 cells (human) (Q9NQU5 whole entry): as the sequence (Q9NQU5 whole entry) above
Chain of LRRK2 Roc-COR (Q5S007 1328-1840): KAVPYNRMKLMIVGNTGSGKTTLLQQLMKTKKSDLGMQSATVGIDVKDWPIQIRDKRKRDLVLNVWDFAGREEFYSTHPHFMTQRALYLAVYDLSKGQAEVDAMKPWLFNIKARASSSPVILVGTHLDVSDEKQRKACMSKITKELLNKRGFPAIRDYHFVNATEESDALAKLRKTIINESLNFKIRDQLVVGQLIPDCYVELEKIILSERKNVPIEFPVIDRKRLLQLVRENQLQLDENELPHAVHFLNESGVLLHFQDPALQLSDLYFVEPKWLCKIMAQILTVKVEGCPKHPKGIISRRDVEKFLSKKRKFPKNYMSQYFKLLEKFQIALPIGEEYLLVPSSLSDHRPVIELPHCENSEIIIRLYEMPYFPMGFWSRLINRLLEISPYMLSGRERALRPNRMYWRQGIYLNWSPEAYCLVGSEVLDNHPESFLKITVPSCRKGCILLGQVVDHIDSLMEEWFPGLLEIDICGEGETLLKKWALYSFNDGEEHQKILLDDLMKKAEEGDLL
Chain of GST-CRIB(PAK6) (Q9NQU5 11-45): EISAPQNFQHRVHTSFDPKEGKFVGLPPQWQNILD
Chain of GST-CRIB(PAK5) (Q9P286 10-44): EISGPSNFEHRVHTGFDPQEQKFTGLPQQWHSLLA

One may read the pKd as the negative decadic logarithm of the Kd, by convention in mol/L. For “GST-CRIB(PAK5) (from UniProt Q9P286 10-44) (domain or fragment)”, the pKd in assay [1] was 3.95.

Turning to “MBP-LRRK2-Roc-COR R1441C (from UniProt Q5S007 1-2527) (domain or fragment)”, in assay [2], the pKd was 4.29.

As for LRRK2 Roc-COR (from UniProt Q5S007), the pKd in assay [3] was 5.00.

Substance “GST-CRIB(PAK6) (from UniProt Q9NQU5 11-45) (domain or fragment)” showed a pKd in assay [1] of 4.92.

“MBP-LRRK2-Roc-COR Y1699C (from UniProt Q5S007 1-2527) (domain or fragment)” showed a negative-log Kd (pKd) in assay [2] of 4.42.
